Source: publication PMC4653032

Key:
Settings in all cases: glycan lost; control: wild-type CD133
[1] = surface flow cytometry, HEK293T and HepG2
[2] = anti-CD133 western blot, HEK293T lysates
[3] = immunofluorescence with ER dye, HEK293T

B1: CD133 (prominin-1): N206Q (protein)
parent chain: MALVLGSLLLLGLCGNSFSGGQPSSTDAPKAWNYELPATNYETQDSHKAGPIGILFELVHIFLYVVQPRDFPEDTLRKFLQKAYESKIDYDKPETVILGLKIVYYEAGIILCCVLGLLFIILMPLVGYFFCMCRCCNKCGGEMHQRQKENGPFLRKCFAISLLVICIIISIGIFYGFVANHQVRTRIKRSRKLADSNFKDLRTLLNETPEQIKYILAQYNTTKDKAFTDLNSINSVLGGGILDRLRPNIIPVLDEIKSMATAIKETKEALENMNSTLKSLHQQSTQLSSSLTSVKTSLRSSLNDPLCLVHPSSETCNSIRLSLSQLNSNPELRQLPPVDAELDNVNNVLRTDLDGLVQQGYQSLNDIPDRVQRQTTTVVAGIKRVLNSIGSDIDNVTQRLPIQDILSAFSVYVNNTESYIHRNLPTLEEYDSYWWLGGLVICSLLTLIVIFYYLGLLCGVCGYDRHATPTTRGCVSNTGGVFLMVGVGLSFLFCWILMIIVVLTFVFGANVEKLICEPYTSKELFRVLDTPYLLNEDWEYYLSGKLFNKSKMKLTFEQVYSDCKKNRGTYGTLHLQNSFNISEHLNINEHTGSISSELESLKVNLNIFLLGAAGRKNLQDFAACGIDRMNYDSYLAQTGKSPAGVNLLSFAYDLEAKANSLPPGNLRNSLKRDAQTIKTIHQQRVLPIEQSLSTLYQSVKILQRTGNGLLERVTRILASLDFAQNFITNNTSSVIIEETKKYGRTIIGYFEHYLQWIEFSISEKVASCKPVATALDTAVDVFLCSYIIDPLNLFWFGIGKATVFLLPALIFAVKLAKYYRRMDSEDVYDDVETIPMKNMENGNNGYHKDHVYGIHNPVMTSPSQH
no change: localisation_or_trafficking [1] | expression_or_secretion [2] | localisation_or_trafficking [3]

B2: CD133 (prominin-1): N395Q (protein)
parent chain: MALVLGSLLLLGLCGNSFSGGQPSSTDAPKAWNYELPATNYETQDSHKAGPIGILFELVHIFLYVVQPRDFPEDTLRKFLQKAYESKIDYDKPETVILGLKIVYYEAGIILCCVLGLLFIILMPLVGYFFCMCRCCNKCGGEMHQRQKENGPFLRKCFAISLLVICIIISIGIFYGFVANHQVRTRIKRSRKLADSNFKDLRTLLNETPEQIKYILAQYNTTKDKAFTDLNSINSVLGGGILDRLRPNIIPVLDEIKSMATAIKETKEALENMNSTLKSLHQQSTQLSSSLTSVKTSLRSSLNDPLCLVHPSSETCNSIRLSLSQLNSNPELRQLPPVDAELDNVNNVLRTDLDGLVQQGYQSLNDIPDRVQRQTTTVVAGIKRVLNSIGSDIDNVTQRLPIQDILSAFSVYVNNTESYIHRNLPTLEEYDSYWWLGGLVICSLLTLIVIFYYLGLLCGVCGYDRHATPTTRGCVSNTGGVFLMVGVGLSFLFCWILMIIVVLTFVFGANVEKLICEPYTSKELFRVLDTPYLLNEDWEYYLSGKLFNKSKMKLTFEQVYSDCKKNRGTYGTLHLQNSFNISEHLNINEHTGSISSELESLKVNLNIFLLGAAGRKNLQDFAACGIDRMNYDSYLAQTGKSPAGVNLLSFAYDLEAKANSLPPGNLRNSLKRDAQTIKTIHQQRVLPIEQSLSTLYQSVKILQRTGNGLLERVTRILASLDFAQNFITNNTSSVIIEETKKYGRTIIGYFEHYLQWIEFSISEKVASCKPVATALDTAVDVFLCSYIIDPLNLFWFGIGKATVFLLPALIFAVKLAKYYRRMDSEDVYDDVETIPMKNMENGNNGYHKDHVYGIHNPVMTSPSQH
no change: localisation_or_trafficking [1] | expression_or_secretion [2] | localisation_or_trafficking [3]

B3: CD133 (prominin-1): N274Q (protein)
parent chain: MALVLGSLLLLGLCGNSFSGGQPSSTDAPKAWNYELPATNYETQDSHKAGPIGILFELVHIFLYVVQPRDFPEDTLRKFLQKAYESKIDYDKPETVILGLKIVYYEAGIILCCVLGLLFIILMPLVGYFFCMCRCCNKCGGEMHQRQKENGPFLRKCFAISLLVICIIISIGIFYGFVANHQVRTRIKRSRKLADSNFKDLRTLLNETPEQIKYILAQYNTTKDKAFTDLNSINSVLGGGILDRLRPNIIPVLDEIKSMATAIKETKEALENMNSTLKSLHQQSTQLSSSLTSVKTSLRSSLNDPLCLVHPSSETCNSIRLSLSQLNSNPELRQLPPVDAELDNVNNVLRTDLDGLVQQGYQSLNDIPDRVQRQTTTVVAGIKRVLNSIGSDIDNVTQRLPIQDILSAFSVYVNNTESYIHRNLPTLEEYDSYWWLGGLVICSLLTLIVIFYYLGLLCGVCGYDRHATPTTRGCVSNTGGVFLMVGVGLSFLFCWILMIIVVLTFVFGANVEKLICEPYTSKELFRVLDTPYLLNEDWEYYLSGKLFNKSKMKLTFEQVYSDCKKNRGTYGTLHLQNSFNISEHLNINEHTGSISSELESLKVNLNIFLLGAAGRKNLQDFAACGIDRMNYDSYLAQTGKSPAGVNLLSFAYDLEAKANSLPPGNLRNSLKRDAQTIKTIHQQRVLPIEQSLSTLYQSVKILQRTGNGLLERVTRILASLDFAQNFITNNTSSVIIEETKKYGRTIIGYFEHYLQWIEFSISEKVASCKPVATALDTAVDVFLCSYIIDPLNLFWFGIGKATVFLLPALIFAVKLAKYYRRMDSEDVYDDVETIPMKNMENGNNGYHKDHVYGIHNPVMTSPSQH
no change: localisation_or_trafficking [1] | expression_or_secretion [2] | localisation_or_trafficking [3]

B4: CD133 (prominin-1): N414Q (protein)
parent chain: MALVLGSLLLLGLCGNSFSGGQPSSTDAPKAWNYELPATNYETQDSHKAGPIGILFELVHIFLYVVQPRDFPEDTLRKFLQKAYESKIDYDKPETVILGLKIVYYEAGIILCCVLGLLFIILMPLVGYFFCMCRCCNKCGGEMHQRQKENGPFLRKCFAISLLVICIIISIGIFYGFVANHQVRTRIKRSRKLADSNFKDLRTLLNETPEQIKYILAQYNTTKDKAFTDLNSINSVLGGGILDRLRPNIIPVLDEIKSMATAIKETKEALENMNSTLKSLHQQSTQLSSSLTSVKTSLRSSLNDPLCLVHPSSETCNSIRLSLSQLNSNPELRQLPPVDAELDNVNNVLRTDLDGLVQQGYQSLNDIPDRVQRQTTTVVAGIKRVLNSIGSDIDNVTQRLPIQDILSAFSVYVNNTESYIHRNLPTLEEYDSYWWLGGLVICSLLTLIVIFYYLGLLCGVCGYDRHATPTTRGCVSNTGGVFLMVGVGLSFLFCWILMIIVVLTFVFGANVEKLICEPYTSKELFRVLDTPYLLNEDWEYYLSGKLFNKSKMKLTFEQVYSDCKKNRGTYGTLHLQNSFNISEHLNINEHTGSISSELESLKVNLNIFLLGAAGRKNLQDFAACGIDRMNYDSYLAQTGKSPAGVNLLSFAYDLEAKANSLPPGNLRNSLKRDAQTIKTIHQQRVLPIEQSLSTLYQSVKILQRTGNGLLERVTRILASLDFAQNFITNNTSSVIIEETKKYGRTIIGYFEHYLQWIEFSISEKVASCKPVATALDTAVDVFLCSYIIDPLNLFWFGIGKATVFLLPALIFAVKLAKYYRRMDSEDVYDDVETIPMKNMENGNNGYHKDHVYGIHNPVMTSPSQH
no change: localisation_or_trafficking [1] | expression_or_secretion [2] | localisation_or_trafficking [3]

B5: CD133 (prominin-1): N580Q (protein)
parent chain: MALVLGSLLLLGLCGNSFSGGQPSSTDAPKAWNYELPATNYETQDSHKAGPIGILFELVHIFLYVVQPRDFPEDTLRKFLQKAYESKIDYDKPETVILGLKIVYYEAGIILCCVLGLLFIILMPLVGYFFCMCRCCNKCGGEMHQRQKENGPFLRKCFAISLLVICIIISIGIFYGFVANHQVRTRIKRSRKLADSNFKDLRTLLNETPEQIKYILAQYNTTKDKAFTDLNSINSVLGGGILDRLRPNIIPVLDEIKSMATAIKETKEALENMNSTLKSLHQQSTQLSSSLTSVKTSLRSSLNDPLCLVHPSSETCNSIRLSLSQLNSNPELRQLPPVDAELDNVNNVLRTDLDGLVQQGYQSLNDIPDRVQRQTTTVVAGIKRVLNSIGSDIDNVTQRLPIQDILSAFSVYVNNTESYIHRNLPTLEEYDSYWWLGGLVICSLLTLIVIFYYLGLLCGVCGYDRHATPTTRGCVSNTGGVFLMVGVGLSFLFCWILMIIVVLTFVFGANVEKLICEPYTSKELFRVLDTPYLLNEDWEYYLSGKLFNKSKMKLTFEQVYSDCKKNRGTYGTLHLQNSFNISEHLNINEHTGSISSELESLKVNLNIFLLGAAGRKNLQDFAACGIDRMNYDSYLAQTGKSPAGVNLLSFAYDLEAKANSLPPGNLRNSLKRDAQTIKTIHQQRVLPIEQSLSTLYQSVKILQRTGNGLLERVTRILASLDFAQNFITNNTSSVIIEETKKYGRTIIGYFEHYLQWIEFSISEKVASCKPVATALDTAVDVFLCSYIIDPLNLFWFGIGKATVFLLPALIFAVKLAKYYRRMDSEDVYDDVETIPMKNMENGNNGYHKDHVYGIHNPVMTSPSQH
no change: localisation_or_trafficking [1] | expression_or_secretion [2] | localisation_or_trafficking [3]

B6: CD133 (prominin-1): N220Q (protein)
parent chain: MALVLGSLLLLGLCGNSFSGGQPSSTDAPKAWNYELPATNYETQDSHKAGPIGILFELVHIFLYVVQPRDFPEDTLRKFLQKAYESKIDYDKPETVILGLKIVYYEAGIILCCVLGLLFIILMPLVGYFFCMCRCCNKCGGEMHQRQKENGPFLRKCFAISLLVICIIISIGIFYGFVANHQVRTRIKRSRKLADSNFKDLRTLLNETPEQIKYILAQYNTTKDKAFTDLNSINSVLGGGILDRLRPNIIPVLDEIKSMATAIKETKEALENMNSTLKSLHQQSTQLSSSLTSVKTSLRSSLNDPLCLVHPSSETCNSIRLSLSQLNSNPELRQLPPVDAELDNVNNVLRTDLDGLVQQGYQSLNDIPDRVQRQTTTVVAGIKRVLNSIGSDIDNVTQRLPIQDILSAFSVYVNNTESYIHRNLPTLEEYDSYWWLGGLVICSLLTLIVIFYYLGLLCGVCGYDRHATPTTRGCVSNTGGVFLMVGVGLSFLFCWILMIIVVLTFVFGANVEKLICEPYTSKELFRVLDTPYLLNEDWEYYLSGKLFNKSKMKLTFEQVYSDCKKNRGTYGTLHLQNSFNISEHLNINEHTGSISSELESLKVNLNIFLLGAAGRKNLQDFAACGIDRMNYDSYLAQTGKSPAGVNLLSFAYDLEAKANSLPPGNLRNSLKRDAQTIKTIHQQRVLPIEQSLSTLYQSVKILQRTGNGLLERVTRILASLDFAQNFITNNTSSVIIEETKKYGRTIIGYFEHYLQWIEFSISEKVASCKPVATALDTAVDVFLCSYIIDPLNLFWFGIGKATVFLLPALIFAVKLAKYYRRMDSEDVYDDVETIPMKNMENGNNGYHKDHVYGIHNPVMTSPSQH
no change: localisation_or_trafficking [1] | expression_or_secretion [2] | localisation_or_trafficking [3]
